Data: article PMC10373542 (Journal of Virology, 2023)

Experiments:
[1] = molecular target: T1, SARS-CoV-2 WA-1 spike receptor binding domain (RBD) (SARS-CoV-2 WA-1 (S identical to …, UniProt P0DTC2)); test: cell-based or functional assay
[2] = molecular target: T1, SARS-CoV-2 WA-1 spike receptor binding …; test: BLI
[3] = molecular target: T1, SARS-CoV-2 WA-1 spike receptor binding …; test: BLI; remark: listed apart in the source

Binder	IC50 of neutralization of WA-1 pseudotyped virus on HEK293 cells expressing ACE2 [1]	fold higher rate of dissociation (koff) than with WRAIR-2063 [2]	Kd [3]
Walter Reed Army Institute of Research 2063 (WRAIR-2063) monoclonal antibody, human IgG1 (antibody, V domains shown) VH: EVQLVESGGGVVQPGRSLRLSCAASGFTFSSYGMHWVRQAPGKGLEWVAVIWYDGSNKYYADSVKGRFTISRDNSKNTLYLQMNSLRAEDTAVYYCARGPLGSNYFNYDAFDIWGQGTMVTVSS VL: DVVMTQSPLSLPVTLGQPASISCRSSQSLEYSDGNTYLNWFQQRPGQSPRRLIYKVSKRDSGVPDRFSGSGSGSDFTLKISRVEAEDVGVYYCMQGTHWPLTFGGGTKVEIK	0.45 µg/mL		
FD20 monoclonal antibody (antibody, V domains shown) VH: QVQLQQSGAEVKKPGSSVKVSCKASGGTFSSYAFSWVRQAPGQGLEWMGRIIPILGIANYAQKFQGRVTITADISTSTAYMALSSLRSEDTAVYYCAKVEVNIGMDDYYYYYGMDVWGQGTTVTVSS VL: not shown	0.6 µg/mL	~10 fold	3.07 nM
ION-300 monoclonal antibody (antibody, V domains shown) VH: QVQLVQSGAEVKKPGESLKISCKGSGYSFTSYWIGWVRQMPGKGLEWMGIIYPGDSDTRYSPSFQGQVTISADKSISTAYLQWSSLKASDTAMYYCARHPSPYYYGSGSYSGGFDYWGQGTLVTVSS VL: DIVMTQSPGTLSLSPGERATLSCRASQSVSSSYLAWYQQKPGQAPRLLIYGASTRATGIPARFSGSGSGTEFTLTISSLQSEDFAVYYCQQYDNWPLMHTFGQGTKLEIK	0.99 µg/mL	~10 fold	3.65 nM
S2H97 monoclonal antibody (antibody, V domains shown) VH: QVRLVQSGAEVKKSGESLKISCKGSGYSFTSYWIGWVRQMPGKGLEWMGIIYPGDSDTRYSPSFQGQVTISADKSISTVYLQWSSLKASDTAMYYCARQWSHYTYDYYYWGQGTLVTISS VL: QSVLTQPASVSGSPGQSITISCTGISSDVGGYNSVSWYQQHPGKAPKLMIYDVTNRPSGVSNRFSGSKSGNTASLTISGLQAEDEADYYCSSYTSSSTPPYVFGTGTKVSVL	0.31 µg/mL		0.9 nM
X17 monoclonal antibody (antibody, V domains shown) VH: QVQLQQSGAELARPGASVKLSCKASGYTFTFYWMQWLKQRPGQGLEWIGAIYPGDGDTRYTQRFKDKATLTADKSSSTAYIQLSSLASEDSAVYYCAGGEYDNYGFDYWGQGTTLTVSS VL: DIQMTQTTSSLSASLGDRVTISCRASQDISNYLNWYQQKPDGTVKLLIYYTSRLHSGVPSRFSGSGSGTDYSLTISNLEQEDIATYFCQQGTTLPYTFGGGTKLEIK	2.27 µg/mL	~10 fold	4.72 nM
7D6 monoclonal antibody (antibody, V domains shown) VH: EVQLQQSGAELVRPGASVKLSCTASGFNIKDTYIHWVKQRPEQGLEWIGRIDPGDGDTEYDPSFQGKATITADTSSNTAYLELSSLTSEDTAVYYCTRFYDYVDYGMDYWGQGTSVTVSS VL: DIQMTQSPASLSASVGETVTITCRASGNIHNYLAWYQQKQGKSPQLLVYNAKTLADGVPSRFSGSGSGTQYSLKINSLQPEDFGSYYCQHFWSTPPWTFGGGTKLEVK	0.33 µg/mL	~10 fold	3.41 nM
6D6 monoclonal antibody (antibody, V domains shown) VH: EVQLQQSGAELVKPGASVKLSCTTSGFNIIDTYMHWVKQRPEEGLEWIGGIDPVNGNSEYDPKFQDKATITADTSSNTAYLHLSRLTSEDTAVYYCASAHYYGSSSSFPYWGQGTDLVTVS VL: DIVMTQSQKFMSTSVGDRVSVTCKASQNVGTHVAWYQQKPGQSPKALIYSASYRYSGVPDRFTGSGVGTDFTLTITNVQSEDLAEYFCQQYNSYFTFGSGTKLEIK	1.37 µg/mL	~10 fold	3.62 nM
COVOX-45 monoclonal antibody (antibody, V domains shown) VH: QVQLVESGGGVVQPGRSLRLSCAASGFTFSTYAMHWVRQAPGKGLEWVAVLSYDGSNKYYADSVKGRFTISRDNSKNTLYLQMNSLRAEDTAVYYCAKGGSYAYYYYMDVWGKGTTVTVSS VL: not shown	0.32 µg/mL	~10 fold	4.43 nM
N-612-056 monoclonal antibody (antibody, V domains shown) VH: not shown VL: DIQMTQSPSSLSASVGDRVTITCQASQDISNYLNWYQQKPGKAPKLLIYDASNLETGVPSRFSGSGSGTDFTFTISSLQPEDIATYYCQQDAGTPLTFGQGTKVEIK	4.47 µg/mL	~10 fold	6.31 nM
WRAIR-2134 monoclonal antibody (antibody, V domains shown) VH: EVQLVESGGGVVQPGRSLRLSCAASGFIFSSYGMYWVRQAPGKGLEWVAVIWYDGSNKYYADSVKGRFTISRDNSKNTLYLQMNSLRAEDTAVYYCARDLSSSSGWDDYYYYYGMDVWGQGTTVTVSS VL: not shown	18.6 µg/mL	~10 fold	4.26 nM
WRAIR-2057 monoclonal antibody (antibody, V domains shown) VH: EVQLVQSGAEVKKPGESLKISCKGSGYSFISYWIAWVRQMPGKGLEWMGIIYPGDSDTTYSPSFQGQVTISADKSISTAYLQWSSLKASDTAIYYCARLLYYSDSSPLDSWGQGTLVTVSS VL: DIQMTQSPSSLSASVGDRVTITCRASQSISTYLNWYQQKPGKAPNLLIYAASSLQSGVPSRFSGSGSGTDFTLTISSLQPEDFATYYCQQSHSTPRTFGPGTKVDIK	1.85 µg/mL	~10 fold	6.3 nM
